Measurements reported in the supplement of paper PMC6757056.
± gives the standard deviation of the averaged measurements.

B1: library; a variant is named by its letters at N, in order (parent)
chain: GCUGUCACCGAGAAACUGUGAAGUAUAUCUUAAACCUGGGCACUUAAAAGAUAUAUGGAGUUAGUAGUGCAACCUGCUCGGUCUGAUGAGUCCNNNNNNGGACGAAACAGC

Assays:
[1] = variants of: B1; experiment: FACS-Seq fitted mean relative fluorescence mCherry/BFP without ligand (log10 relative fluorescence); HEK293T; ligand: cyclic di-GMP (c-di-GMP-II aptamer); higher = higher reporter protein expression; conditions: ligand present: no
How it was run: (§1)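 Enriched HEK293T cells carrying, by lentivirus, an mCherry reporter with the ribozyme switch and an EF1α-BFP marker spent 48 h with or without ligand and were sorted into 6 bins by mCherry/BFP. MiSeq sequencing of PCR-amplified bin genomic DNA gave bin counts. Fluorescence was calculated as the fitted normal mean of those counts. Counts were binned on log10(mCherry/BFP), and means were scaled to five spiked-in control ribozymes.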

[2] = variants of: B1; experiment: normalized RNA/DNA level without ligand (relative to sTRSVctl = 100) (log10 (% of sTRSVctl)); HEK293T; ligand: cyclic di-GMP (c-di-GMP-II aptamer); higher = less ribozyme self-cleavage, higher mRNA level; conditions: reporter: mCherry (pCS4076), ligand present: no
How it was run: (§2)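 HEK293T cells received ligand, where used, 1 h before being transfected with 4 µg per 6-well well of library plasmids encoding reporter-linked ribozyme switches. After 72 h, RNA was extracted with EDTA and sequenced. RNA level was derived from RNA reads per DNA read, normalized to a spiked-in non-cleaving sequence or the top sequences, then scaled and log-transformed. Values were ×100 then log10, the top set was 25 sequences, and the minimum was 100 DNA reads.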

[3] = variants of: B1; experiment: FACS-Seq fitted mean relative fluorescence mCherry/BFP with ligand (log10 relative fluorescence); HEK293T; ligand: cyclic di-GMP (c-di-GMP-II aptamer); ligand concentration (+) FACS-Seq: 1 mM; higher = higher reporter protein expression; conditions: ligand present: yes
How it was run: as §1

[4] = variants of: B1; experiment: normalized RNA/DNA level with ligand (relative to sTRSVctl = 100) (log10 (% of sTRSVctl)); HEK293T; ligand: cyclic di-GMP (c-di-GMP-II aptamer); ligand concentration (+) RNA-Seq: 1 mM; higher = less ribozyme self-cleavage, higher mRNA level; conditions: reporter: mCherry (pCS4076), ligand present: yes
How it was run: as §2

Variant	FACS-Seq fitted mean (log10) [1]	normalized RNA/DNA level without ligand (log10) [2]	FACS-Seq fitted mean (log10) [3]	normalized RNA/DNA level with ligand (log10) [4]
ACCAAG	-0.4336 ± 0.0033	1.54 ± 0.1	-0.172 ± 0.048	1.71 ± 0.09
CCGUUG	-0.483 ± 0.093	1.28 ± 0.069	-0.2456 ± 0.00076	1.49 ± 0.1
GCGUUU	-0.452 ± 0.069	1.6 ± 0.026	-0.302 ± 0.06	1.77 ± 0.14
CCGCUU	-0.424 ± 0.011	1.557 ± 0.013	-0.124 ± 0.0085	1.79 ± 0.076
CCCAGA	-0.192 ± 0.068	1.55 ± 0.021	0.0209 ± 0.061	1.74 ± 0.078
CCGAGC	-0.204 ± 0.022	1.78 ± 0.059	0.0994 ± 0.021	1.88 ± 0.14
CCGAGA	-0.211 ± 0.078	1.46 ± 0.11	0.0834 ± 0.071	1.66 ± 0.086
GCGUCG	-0.555 ± 0.037	1.64 ± 0.037	-0.312 ± 0.016	1.77 ± 0.11
CCCAUU	-0.0438 ± 0.1	1.637 ± 0.0022	0.204 ± 0.023	1.79 ± 0.13
CCCAUA	-0.471 ± 0.0071	1.4 ± 0.11	-0.164 ± 0.0037	1.65 ± 0.09
CCGUAU	-0.719 ± 0.038	1.5 ± 0.015	-0.441 ± 0.007	1.69 ± 0.16
CCGUAA	-0.4729 ± 0.0036	1.35 ± 0.17	-0.242 ± 0.019	1.57 ± 0.082
UCGAGC	-0.085 ± 0.098	1.736 ± 0.017	0.204 ± 0.013	1.84 ± 0.1
UCGAGA	-0.546 ± 0.018	1.47 ± 0.0053	-0.217 ± 0.11	1.71 ± 0.16
UCGAGU	-0.395 ± 0.033	1.47 ± 0.066	-0.0571 ± 0.032	1.73 ± 0.11
CCCGUA	-0.351 ± 0.12	1.55 ± 0.067	-0.0502 ± 0.012	1.72 ± 0.055
CCCGUC	-0.648 ± 0.28	1.73 ± 0.061	-0.317 ± 0.1	1.87 ± 0.16
GCCCUA	-0.142 ± 0.071	1.688 ± 0.013	0.0262 ± 0.042	1.85 ± 0.1
ACUAAA	-0.416 ± 0.14	1.41 ± 0.045	-0.0324 ± 0.021	1.62 ± 0.088
ACUAAG	-0.34 ± 0.089	1.5 ± 0.12	-0.165 ± 0.11	1.71 ± 0.026
ACUAAU	-0.784 ± 0.024	1.47 ± 0.052	-0.433 ± 0.047	1.68 ± 0.11
ACGGUU	-0.529 ± 0.031	1.22 ± 0.074	-0.237 ± 0.11	1.4 ± 0.1
ACGGUA	-0.397 ± 0.031	1.37 ± 0.069	-0.0373 ± 0.057	1.57 ± 0.14
ACUAUA	-0.358 ± 0.029	1.53 ± 0.057	0.067 ± 0.087	1.72 ± 0.12

Variant	FACS-Seq fitted mean (log10) [1]	normalized RNA/DNA level without ligand (log10) [2]	FACS-Seq fitted mean (log10) [3]	normalized RNA/DNA level with ligand (log10) [4]
GCGCAU	-0.0572 ± 0.14	1.66 ± 0.058	0.0686 ± 0.025	1.8 ± 0.11
CCGGUU	-0.109 ± 0.11	1.592 ± 0.0094	0.264 ± 0.0069	1.78 ± 0.096
CCGGUG	-0.614 ± 0.039	1.27 ± 0.12	-0.397 ± 0.038	1.46 ± 0.11
CCGGUA	-0.505 ± 0.068	1.36 ± 0.12	-0.223 ± 0.059	1.61 ± 0.087
UCGCAA	-0.351 ± 0.038	1.47 ± 0.019	-0.0919 ± 0.063	1.69 ± 0.18
UCCCUG	0.234 ± 0.092	1.776 ± 0.0073	0.44 ± 0.0075	1.89 ± 0.13
ACGUGU	-0.475 ± 0.012	1.45 ± 0.097	-0.096 ± 0.051	1.69 ± 0.078
ACGUGA	-0.228 ± 0.016	1.33 ± 0.052	-0.0284 ± 0.061	1.54 ± 0.096
ACGUGG	-0.532 ± 0.088	1.56 ± 0.11	-0.352 ± 0.032	1.74 ± 0.058
GCUAGA	-0.35 ± 0.031	1.49 ± 0.043	-0.116 ± 0.03	1.67 ± 0.099
ACCUCC	0.0782 ± 0.15	1.78 ± 0.055	0.281 ± 0.037	1.86 ± 0.15
UCUAAU	-0.491 ± 0.013	1.6 ± 0.017	-0.327 ± 0.062	1.78 ± 0.1
UCUAAA	-0.692 ± 0.041	1.495 ± 0.0055	-0.441 ± 0.055	1.74 ± 0.15
GCCACC	-0.0159 ± 0.27	1.682 ± 0.011	0.0347 ± 0.1	1.84 ± 0.095
GCCGCU	-0.109 ± 0.1	1.72 ± 0.015	0.0767 ± 0.02	1.92 ± 0.09
UCCCGU	-0.0215 ± 0.15	1.72 ± 0.022	0.3 ± 0.015	1.83 ± 0.15
UCGGUC	-0.238 ± 0.16	1.675 ± 0.0093	0.0705 ± 0.033	1.83 ± 0.1
UCGGUA	-0.583 ± 0.023	1.31 ± 0.18	-0.2658 ± 0.00058	1.52 ± 0.054
CCCCAU	-0.0362 ± 0.2	1.68 ± 0.022	0.163 ± 0.051	1.83 ± 0.11
CCCCAC	-0.891 ± 0.018	1.75 ± 0.033	-0.665 ± 0.018	1.88 ± 0.097
GCGGAG	-0.301 ± 0.022	1.53 ± 0.13	-0.076 ± 0.067	1.7 ± 0.055
GCGGAA	-0.527 ± 0.013	1.33 ± 0.21	-0.19 ± 0.061	1.54 ± 0.1
GCGGAC	-0.751 ± 0.049	1.33 ± 0.11	-0.511 ± 0.04	1.46 ± 0.045
UCGAUA	-0.515 ± 0.044	1.35 ± 0.17	-0.119 ± 0.11	1.51 ± 0.084

Variant	FACS-Seq fitted mean (log10) [1]	normalized RNA/DNA level without ligand (log10) [2]	FACS-Seq fitted mean (log10) [3]	normalized RNA/DNA level with ligand (log10) [4]
UCGAUU	-0.335 ± 0.14	1.55 ± 0.074	0.0883 ± 0.079	1.74 ± 0.17
ACCCUC	-0.504 ± 0.046	1.784 ± 0.015	-0.217 ± 0.028	1.91 ± 0.057
ACCCUG	-0.354 ± 0.046	1.67 ± 0.022	0.0314 ± 0.09	1.83 ± 0.097
ACCAGU	-0.368 ± 0.064	1.602 ± 0.0077	0.00485 ± 0.036	1.8 ± 0.068
CCCGGU	-0.55 ± 0.093	1.724 ± 0.003	-0.114 ± 0.093	1.87 ± 0.11
GCUAAU	-0.207 ± 0.11	1.56 ± 0.049	0.146 ± 0.04	1.74 ± 0.078
GCGUGA	-0.266 ± 0.05	1.47 ± 0.068	-0.000275 ± 0.097	1.65 ± 0.088
GCGUGU	-0.15 ± 0.054	1.5 ± 0.085	0.114 ± 0.056	1.75 ± 0.083
GCCAUA	0.0302 ± 0.039	1.55 ± 0.05	0.269 ± 0.026	1.72 ± 0.069
GCCAUU	-0.372 ± 0.0056	1.58 ± 0.016	-0.161 ± 0.13	1.78 ± 0.13
GCCGUG	-0.238 ± 0.056	1.6 ± 0.097	0.0457 ± 0.053	1.8 ± 0.06
GCGGUU	-0.562 ± 0.021	1.6 ± 0.044	-0.254 ± 0.0055	1.75 ± 0.11
GCGUAU	-0.304 ± 0.056	1.48 ± 0.043	0.0112 ± 0.012	1.72 ± 0.12
GCGUAG	-0.637 ± 0.047	1.67 ± 0.074	-0.348 ± 0.095	1.8 ± 0.085
ACGAUU	-0.694 ± 0.056	1.2 ± 0.13	-0.341 ± 0.036	1.41 ± 0.19
ACGAUG	-0.381 ± 0.017	1.55 ± 0.084	-0.168 ± 0.022	1.72 ± 0.14
CCUACC	-0.57 ± 0.25	1.757 ± 0.0078	-0.577 ± 0.048	1.85 ± 0.053
GCGAUC	-0.51 ± 0.012	1.16 ± 0.039	-0.206 ± 0.014	1.34 ± 0.15
GCGAUA	-0.474 ± 0.0058	1.44 ± 0.11	-0.154 ± 0.057	1.61 ± 0.12
GCGAAU	-0.502 ± 0.029	1.45 ± 0.057	-0.149 ± 0.079	1.64 ± 0.14
GCCAAG	-0.6955 ± 0.0047	1.542 ± 0.0066	-0.362 ± 0.081	1.67 ± 0.19
GCCAAU	-0.423 ± 0.1	1.57 ± 0.021	-0.105 ± 0.08	1.75 ± 0.11
GCUACG	0.0942 ± 0.14	1.58 ± 0.017	0.353 ± 0.045	1.72 ± 0.1
